From article PMC6126765 (Proceedings of the National Academy of Sciences of the …, 2018)

Target: the molecule itself
Assay: cryo-EM structure

B1: MBP-tagged truncated mouse TRPM7 (amino acids 1 to 1280) (domain or fragment)
chain: MSQKSWIESTLTKRECVYIIPSSKDPHRCLPGCQICQQLVRCFCGRLVKQHACFTASLAMKYSDVKLGEHFNQAIEEWSVEKHTEQSPTDAYGVINFQGGSHSYRAKYVRLSYDTKPEIILQLLLKEWQMELPKLVISVHGGMQKFELHPRIKQLLGKGLIKAAVTTGAWILTGGVNTGVAKHVGDALKEHASRSSRKICTIGIAPWGVIENRNDLVGRDVVAPYQTLLNPLSKLNVLNNLHSHFILVDDGTVGKYGAEVRLRRELEKTINQQRIHARIGQGVPVVALIFEGGPNVILTVLEYLQESPPVPVVVCEGTGRAADLLAYIHKQTEEGGNLPDAAEPDIISTIKKTFNFGQSEAVHLFQTMMECMKKKELITVFHIGSEDHQDIDVAILTALLKGTNASAFDQLILTLAWDRVDIAKNHVFVYGQQWLVGSLEQAMLDALVMDRVSFVKLLIENGVSMHKFLTIPRLEELYNTKQGPTNPMLFHLIRDVKQGNLPPGYKITLIDIGLVIEYLMGGTYRCTYTRKRFRLIYNSLGGNNRRSGRNTSSSTPQLRKSHETFGNRADKKEKMRHNHFIKTAQPYRPKMDASMEEGKKKRTKDEIVDIDDPETKRFPYPLNELLIWACLMKRQVMARFLWQHGEESMAKALVACKIYRSMAYEAKQSDLVDDTSEELKQYSNDFGQLAVELLEQSFRQDETMAMKLLTYELKNWSNSTCLKLAVSSRLRPFVAHTCTQMLLSDMWMGRLNMRKNSWYKVILSILVPPAILMLEYKTKAEMSHIPQSQDAHQMTMEDSENNFHNITEEIPMEVFKEVKILDSSDGKNEMEIHIKSKKLPITRKFYAFYHAPIVKFWFNTLAYLGFLMLYTFVVLVKMEQLPSVQEWIVIAYIFTYAIEKVREVFMSEAGKISQKIKVWFSDYFNVSDTIAIISFFVGFGLRFGAKWNYINAYDNHVFVAGRLIYCLNIIFWYVRLLDFLAVNQQAGPYVMMIGKMVANMFYIVVIMALVLLSFGVPRKAILYPHEEPSWSLAKDIVFHPYWMIFGEVYAYEIDVCANDSTLPTICGPGTWLTPFLQAVYLFVQYIIMVNLLIAFFNNVYLQVKAISNIVWKYQRYHFIMAYHEKPVLPPPLIILSHIVSLFCCVCKRRKKDKTSDGPKLFLTEEDQKKLHDFEEQCVEMYFDEKDDKFNSGSEERIRVTFERVEQMSIQIKEVGDRVNYIKRSLQSLDSQIGHLQDLSALTVDTLKTLTAQKASEASKVHNEITRELSISKHLAQNLID
stoichiometry N: 4
